Measured values taken from US20110086770A1 (ANAPHORE, published 2011).
Residue numbers refer to the chain shown, from its start.

T1: recombinant human IL-23R/Fc chimera (R&D Systems) (human, UniProt Q5VWK5 24-353)
T1 construct: bought; also called human IL-23R/Fc fusion protein; rhIL23RFc
T1 sequence (looked up): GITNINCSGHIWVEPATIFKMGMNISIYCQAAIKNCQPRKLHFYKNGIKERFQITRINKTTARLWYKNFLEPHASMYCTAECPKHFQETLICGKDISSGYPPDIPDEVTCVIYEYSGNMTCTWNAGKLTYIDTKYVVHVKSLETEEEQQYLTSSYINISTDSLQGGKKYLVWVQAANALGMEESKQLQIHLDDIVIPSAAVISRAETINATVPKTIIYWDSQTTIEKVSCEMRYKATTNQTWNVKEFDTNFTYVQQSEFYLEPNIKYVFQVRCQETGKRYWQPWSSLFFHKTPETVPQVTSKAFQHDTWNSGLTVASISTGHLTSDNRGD

B1: 101-51-1A3 ATRIMER (designed binder)
chain: EPPTQKPKKIVNAKKDVVNTKMFEELKSRLDTLAQEVALLKEQQALQTVCLKGTKVHMKCFLAFTQTKTFHEASEDCISRGGTLSTPQTGSENDALYEYLRQSVGNEAEIWLGLNGSALTNTWVDMTGARIAYKNWEHQPVYQPGGGWGVFGENCAVLSGAANGKWFDKRCRDQLPYICQFGIV
modifications: ATRIMER is a homotrimer; one protomer is given.
notes: not shown: C-terminal purification tag: Myc/His6 (pANA4) or HA-StrepII (pANA10)
B2: 105-08-1A7 ATRIMER (designed binder)
chain: B1 chain with A118V, L119R, H138T, Q139E, P140I, V141T, Y142A, G145D, W148F, V150Y
modifications: Homotrimer of the given chain (ATRIMER complex).
B3: 105-08-2E12 ATRIMER (designed binder)
chain: B1 chain with A118G, N121D, H138T, Q139E, P140I, V141T, Y142A, G145D, V150Y
B4: 105-08-2D2 ATRIMER (designed binder)
chain: B1 chain with L119R, N121G, H138T, Q139E, P140I, V141T, Y142A, G145D, W148F, V150Y
modifications: Forms a homotrimer (ATRIMER) through the tetranectin coiled coil; one protomer is given.
notes: not shown: C-terminal tag
B5: 105-08-1D10 ATRIMER (designed binder)
chain: B1 chain with L119R, N121G, H138T, Q139E, P140I, V141T, Y142A, G145D, V150Y
notes: not shown: C-terminal tag: His/Myc (pANA4) or HA-StrepII (pANA10)
B6: 105-08-1B1 ATRIMER (designed binder)
chain: EPPTQKPKKIVNAKKDVVNTKMFEELKSRLDTLAQEVALLKEQQALQTVCLKGTKVHMKCFLAFTQTKTFHEASEDCISRGGTLSTPQTGSENDALYEYLRQSVGNEAEIWLGLNGSPRTQTWVDMTGARIAYKNWETEITAQPDGGFGYFGENCAVLSGAANGKWFDKRCRDQLPYICQFGIV
modifications: Homotrimer of the given chain (ATRIMER complex).
B7: 105-08-1A10 ATRIMER (designed binder)
chain: B6 chain with P118S, R119I, Q121D, F148W
modifications: Forms a homotrimer (ATRIMER) through the tetranectin coiled coil; one protomer is given.
notes: not shown: C-terminal tag
B8: 105-08-2A1 ATRIMER (designed binder)
chain: B6 chain with P118M, Q121D, F148W
B9: 105-08-1D1 ATRIMER (designed binder)
chain: B6 chain with P118A, R119L, Q121D, F148W
B10: 105-08-1C6 ATRIMER (designed binder)
chain: B6 chain with P118A, R119L, Q121D
B11: 105-08-1A4 ATRIMER (designed binder)
chain: B6 chain with P118A, R119V, Q121N
B12: 101-51-1A8 ATRIMER (designed binder)
chain: B1 chain with H138R, Q139T, V141P, Y142W, G145E, W148F, V150Y
modifications: ATRIMER is a homotrimer; one protomer is given.
notes: as for B1
B13: 105-08-1D12 ATRIMER (designed binder)
chain: B6 chain with P118V, R119L, Q121D
B14: 105-08-2G6 ATRIMER (designed binder)
chain: B6 chain with P118L, R119L, Q121D, F148W
notes: as for B5
B15: 105-08-2F6 ATRIMER (designed binder)
chain: B6 chain with P118A, R119Y, Q121N
notes: as for B5
B16: 105-08-1D3 ATRIMER (designed binder)
chain: B6 chain with P118K, R119V, Q121E
notes: as for B1
B17: 105-08-1C10 ATRIMER (designed binder)
chain: B6 chain with P118S, R119V, Q121N, F148W
B18: 101-54-4B6 ATRIMER (designed binder)
chain: B1 chain with H138P, Q139P, P140G, V141P, Y142H, Q143H, G145M, W148F
B19: 105-08-1C3 ATRIMER (designed binder)
chain: B6 chain with P118Q, R119L, Q121D, F148W
B20: 105-08-2C6 ATRIMER (designed binder)
chain: B6 chain with P118Q, Q121D, F148W
B21: 101-54-4A12 ATRIMER (designed binder)
chain: EPPTQKPKKIVNAKKDVVNTKMFEELKSRLDTLAQEVALLKEQQALQTVCLKGTKVHMKCFLAFTQTKTFHEASEDCISRGGTLSTPQTGSENDALYEYLRQSVGNEAEIWLGLNGSRRSGVWVDMTGARIAYKNWEPPGPAHPQGGFGVFGENCAVLSGAANGKWFDKRCRDQLPYICQFGIV
B22: 105-08-1C11 ATRIMER (designed binder)
chain: B6 chain with P118S, Q121D
notes: as for B5
B23: 105-08-1B7 ATRIMER (designed binder)
chain: B6 chain with Q121D
modifications: Forms a homotrimer (ATRIMER) through the tetranectin coiled coil; one protomer is given.
notes: not shown: C-terminal tag
B24: 105-08-1A8 ATRIMER (designed binder)
chain: B6 chain with Q121N, Y150V
notes: not shown: C-terminal tag: Myc/His6 (pANA4) or HA-StrepII (pANA10); A Ser left at the ompA junction may also sit at the N-terminus
B25: 105-08-1C2 ATRIMER (designed binder)
chain: B6 chain with P118R, R119A, Q121D
modifications: Forms a homotrimer (ATRIMER) through the tetranectin coiled coil; one protomer is given.
notes: not shown: C-terminal tag
B26: 101-80-5E8 ATRIMER (designed binder)
chain: B1 chain with H138P, Q139P, P140E, V141P, Y142L, Q143H, G145M, W148F
B27: 101-51-1A10 ATRIMER (designed binder)
chain: B1 chain with Q139P, P140L, V141P, Y142P, G145S, W148F, V150Y
modifications: ATRIMER is a homotrimer; one protomer is given.
notes: as for B1
B28: 105-08-1G9 ATRIMER (designed binder)
chain: B6 chain with R119K, Q121D
notes: as for B5
B29: 105-08-1C4 ATRIMER (designed binder)
chain: B6 chain with P118T, R119L, Q121D, F148W
modifications: Homotrimer of the given chain (ATRIMER complex).
B30: 105-08-1G2 ATRIMER (designed binder)
chain: B6 chain with P118S, R119K, Q121N, F148W
notes: as for B5
B31: 101-51-1A6 ATRIMER (designed binder)
chain: B1 chain with H138N, Q139N, P140L, V141S, Y142A, G145R, W148F, V150Y
modifications: ATRIMER is a homotrimer; one protomer is given.
notes: as for B1
B32: 105-08-2C12 ATRIMER (designed binder)
chain: B6 chain with P118Q, Q121D
modifications: Homotrimer of the given chain (ATRIMER complex).
B33: 105-08-2C1 ATRIMER (designed binder)
chain: B6 chain with P118S, R119L, Q121D, F148W
B34: 105-08-2B3 ATRIMER (designed binder)
chain: B6 chain with P118A, R119I, Q121N, F148W
B35: 105-08-1B10 ATRIMER (designed binder)
chain: B6 chain with P118R, R119H, Q121D
B36: 105-08-2C10 ATRIMER (designed binder)
chain: B6 chain with P118L, R119L, Q121D, Y150V
notes: as for B1
B37: 105-08-2C9 ATRIMER (designed binder)
chain: B6 chain with P118T, R119L, Q121N, F148W
notes: as for B5
B38: 105-08-2G4 ATRIMER (designed binder)
chain: B6 chain with Q121G
notes: as for B5
B39: 105-08-2G2 ATRIMER (designed binder)
chain: B6 chain with P118A, R119I, Q121D, F148W
B40: 105-08-2C8 ATRIMER (designed binder)
chain: B6 chain with P118W, R119L, Q121D, F148W
B41: 105-08-1C9 ATRIMER (designed binder)
chain: B6 chain with P118T, R119L, Q121D
notes: as for B5
B42: 105-08-2C4 ATRIMER (designed binder)
chain: B6 chain with P118L, R119L, Q121N
modifications: Homotrimer of the given chain (ATRIMER complex).
B43: 101-54-4B3 ATRIMER (designed binder)
chain: B1 chain with H138L, Q139P, V141P, Y142G, Q143H, G145Q, W148F
B44: 105-08-2C11 ATRIMER (designed binder)
chain: B6 chain with P118L, R119K, F148W
B45: 105-08-1D2 ATRIMER (designed binder)
chain: B6 chain with R119V, Q121D
modifications: Forms a homotrimer (ATRIMER) through the tetranectin coiled coil; one protomer is given.
notes: not shown: C-terminal tag
B46: 105-08-1G12 ATRIMER (designed binder)
chain: B6 chain with P118L, Q121G, F148W
B47: 105-08-2G1 ATRIMER (designed binder)
chain: B6 chain with R119K, Q121H

Molecular target: T1, recombinant human IL-23R/Fc chimera …
Assay: competition ELISA against IL-23
Description: Assays were performed generally as follows. Individual wells in Immulon HB2 plates were incubated overnight at 4° C. with 100 μL PBS containing 100 ng of an anti-human IgG Fc (R&D MAB 110 clone 97924). Plates were washed five times with PBS/0.05% Tween 20, and wells were incubated for 1.5 h at RT with 100 μL each of PBS containing 50 ng of recombinant human IL-23R/Fc. […] Competitor was included at a final concentration of 1 μg/mL. After incubation, plates were washed as described and wells were incubated for 40 min at RT with 100 μL each of PBS containing a 1:5000 dilution of streptavidin-HRP conjugate (Pierce catalog no. 21130). After washing, wells were incubated with 100 μL each of TMB (BioFX Lab catalog no. TMBH-1000-0) for up to 30 min at RT. Reactions were stopped with an equal volume of 0.2 M sulfuric acid.

Binder | Ratio IC50 to 056-53.H4E IC50
B1 | 1.6 ratio
B2 | 2.9 ratio
B3 | 9.1 ratio
B4 | 4.1 ratio
B5 | 5.5 ratio
B6 | 3.3 ratio
B7 | 4.3 ratio
B8 | 5 ratio
B9 | 3.6 ratio
B10 | 2 ratio
B11 | 1.6 ratio
B12 | 3.7 ratio
B13 | 4.6 ratio
B14 | 5.2 ratio
B15 | 2.4 ratio
B16 | 0.4 ratio
B17 | 5 ratio
B18 | 0.3 ratio
B19 | 3.6 ratio
B20 | 3.6 ratio
B21 | 1.1 ratio
B22 | 2.8 ratio
B23 | 4.1 ratio
B24 | 1.6 ratio

Binder | Ratio IC50 to 056-53.H4E IC50
B25 | 4.1 ratio
B26 | 0.6 ratio
B27 | 8.7 ratio
B28 | 2.4 ratio
B29 | 3.3 ratio
B30 | 5.5 ratio
B31 | 2.6 ratio
B32 | 3.3 ratio
B33 | 3.6 ratio
B34 | 3.4 ratio
B35 | 4.7 ratio
B36 | 0.9 ratio
B37 | 5.3 ratio
B38 | 2.5 ratio
B39 | 3.8 ratio
B40 | 8.4 ratio
B41 | 7.4 ratio
B42 | 2.9 ratio
B43 | 1 ratio
B44 | 9.1 ratio
B45 | 4.3 ratio
B46 | 13.2 ratio
B47 | 2.2 ratio
